Measurements published in PMC3936715, “Structural and functional analysis of the three MIF4G domains of nonsense-mediated decay factor UPF2” (Nucleic Acids Research, 2013).

B1: UPF2 MIF4G-3 domain (residues 761–1054) (domain or fragment, human, UniProt Q9HAU5 761-1054, looked up)
chain: EKTVKKKRPPLQEYVRKLLYKDLSKVTTEKVLRQMRKLPWQDQEVKDYVICCMINIWNVKYNSIHCVANLLAGLVLYQEDVGIHVVDGVLEDIRLGMEVNQPKFNQRRISSAKFLGELYNYRMVESAVIFRTLYSFTSFGVNPDGSPSSLDPPEHLFRIRLVCTILDTCGQYFDRGSSKRKLDCFLVYFQRYVWWKKSLEVWTKDHPFPIDIDYMISDTLELLRPKIKLCNSLEESIRQVQDLEREFLIKLGLVNDKDSKDSMTEGENLEEDEEEEEGGAETEEQSGNESEVNE
notes: UPF2, human, Q9HAU5, MIF4G-3 construct, residues 761-1054; Limits are printed for the construct 'which we used as substrate in our assays'; also called MIF4G domain 3
B2: preformed UPF2 MIF4G-3/UPF3b complex (complex)
chain 1: B1 chain
chain 2: RNKEKKEALSKVVIRRLPPTLTKEQLQEHLQPMPEHDYFEFFSNDTSLYPHMYARAYINFKNQEDIILFRDRFDGYVFLDNKGQEYPAIVEFAPFQKAAKKK
notes: UPF2, human, Q9HAU5, MIF4G-3 construct, residues 761-1054; UPF3b, RRM domain, residues 42-143; also called UPF2 MIF4G-3 in complex with UPF3b; UPF2/UPF3b
B3: UPF3b RRM domain (residues 42–143) (domain or fragment, UniProt Q9BZI7 42-143, looked up)
chain: B2 chain 2
notes: UPF3b, RRM domain, residues 42-143; also called UPF3b RNP domain
B4: UPF2 (121–1227), all three MIF4G domains and the UPF1 binding domain (domain or fragment, human, UniProt Q9HAU5 121-1227, looked up)
chain: MKEKEESIQLHQEAWERHHLRKELRSKNQNAPDSRPEENFFSRLDSSLKKNTAFVKKLKTITEQQRDSLSHDFNGLNLSKYIAEAVASIVEAKLKISDVNCAVHLCSLFHQRYADFAPSLLQVWKKHFEARKEEKTPNITKLRTDLRFIAELTIVGIFTDKEGLSLIYEQLKNIINADRESHTHVSVVISFCRHCGDDIAGLVPRKVKSAAEKFNLSFPPSEIISPEKQQPFQNLLKEYFTSLTKHLKRDHRELQNTERQNRRILHSKGELSEDRHKQYEEFAMSYQKLLANSQSLADLLDENMPDLPQDKPTPEEHGPGIDIFTPGKPGEYDLEGGIWEDEDARNFYENLIDLKAFVPAILFKDNEKSCQNKESNKDDTKEAKESKENKEVSSPDDLELELENLEINDDTLELEGGDEAEDLTKKLLDEQEQEDEEASTGSHLKLIVDAFLQQLPNCVNRDLIDKAAMDFCMNMNTKANRKKLVRALFIVPRQRLDLLPFYARLVATLHPCMSDVAEDLCSMLRGDFRFHVRKKDQINIETKNKTVRFIGELTKFKMFTKNDTLHCLKMLLSDFSHHHIEMACTLLETCGRFLFRSPESHLRTSVLLEQMMRKKQAMHLDARYVTMVENAYYYCNPPPAEKTVKKKRPPLQEYVRKLLYKDLSKVTTEKVLRQMRKLPWQDQEVKDYVICCMINIWNVKYNSIHCVANLLAGLVLYQEDVGIHVVDGVLEDIRLGMEVNQPKFNQRRISSAKFLGELYNYRMVESAVIFRTLYSFTSFGVNPDGSPSSLDPPEHLFRIRLVCTILDTCGQYFDRGSSKRKLDCFLVYFQRYVWWKKSLEVWTKDHPFPIDIDYMISDTLELLRPKIKLCNSLEESIRQVQDLEREFLIKLGLVNDKDSKDSMTEGENLEEDEEEEEGGAETEEQSGNESEVNEPEEEEGSDNDDDEGEEEEEENTDYLTDSNKENETDEENTEVMIKGGGLKHVPCVEDEDFIQALDKMMLENLQQRSGESVKVHQLDVAIPLHLKSQLRKGPPLGGGEGEAESADTMPFVMLTRKGNKQQFKILNVPMSSQLAANHWNQQQAEQEERMRMKKLTLDINERQEQED
notes: UPF2, human, Q9HAU5, residues 121-1227; the host of this construct is told only in the Supplementary Material

Legend:
[1] = molecular target: T1, SMG1 (full-length recombinant, wild-type, N-terminal SBP-tag) (UniProt Q96Q15 1-3661); assay: SPR; SMG1 immobilised via its N-terminal SBP-tag on a streptavidin (SA) chip, ~2000 RU, BIAcore 3000; analyte titrated at 25 µl/min; apparent KD from RUmax against concentration, one binding site model; details: both partners purified
T1 construct: SMG1, serine/threonine-protein kinase of the PIKK family, about 415 kDa, full-length, wild type; also called SMG1 kinase; wild-type SMG1; source: recombinant, purified; not shown: SBP, N-terminal, kept
T1 sequence (Q96Q15 whole entry): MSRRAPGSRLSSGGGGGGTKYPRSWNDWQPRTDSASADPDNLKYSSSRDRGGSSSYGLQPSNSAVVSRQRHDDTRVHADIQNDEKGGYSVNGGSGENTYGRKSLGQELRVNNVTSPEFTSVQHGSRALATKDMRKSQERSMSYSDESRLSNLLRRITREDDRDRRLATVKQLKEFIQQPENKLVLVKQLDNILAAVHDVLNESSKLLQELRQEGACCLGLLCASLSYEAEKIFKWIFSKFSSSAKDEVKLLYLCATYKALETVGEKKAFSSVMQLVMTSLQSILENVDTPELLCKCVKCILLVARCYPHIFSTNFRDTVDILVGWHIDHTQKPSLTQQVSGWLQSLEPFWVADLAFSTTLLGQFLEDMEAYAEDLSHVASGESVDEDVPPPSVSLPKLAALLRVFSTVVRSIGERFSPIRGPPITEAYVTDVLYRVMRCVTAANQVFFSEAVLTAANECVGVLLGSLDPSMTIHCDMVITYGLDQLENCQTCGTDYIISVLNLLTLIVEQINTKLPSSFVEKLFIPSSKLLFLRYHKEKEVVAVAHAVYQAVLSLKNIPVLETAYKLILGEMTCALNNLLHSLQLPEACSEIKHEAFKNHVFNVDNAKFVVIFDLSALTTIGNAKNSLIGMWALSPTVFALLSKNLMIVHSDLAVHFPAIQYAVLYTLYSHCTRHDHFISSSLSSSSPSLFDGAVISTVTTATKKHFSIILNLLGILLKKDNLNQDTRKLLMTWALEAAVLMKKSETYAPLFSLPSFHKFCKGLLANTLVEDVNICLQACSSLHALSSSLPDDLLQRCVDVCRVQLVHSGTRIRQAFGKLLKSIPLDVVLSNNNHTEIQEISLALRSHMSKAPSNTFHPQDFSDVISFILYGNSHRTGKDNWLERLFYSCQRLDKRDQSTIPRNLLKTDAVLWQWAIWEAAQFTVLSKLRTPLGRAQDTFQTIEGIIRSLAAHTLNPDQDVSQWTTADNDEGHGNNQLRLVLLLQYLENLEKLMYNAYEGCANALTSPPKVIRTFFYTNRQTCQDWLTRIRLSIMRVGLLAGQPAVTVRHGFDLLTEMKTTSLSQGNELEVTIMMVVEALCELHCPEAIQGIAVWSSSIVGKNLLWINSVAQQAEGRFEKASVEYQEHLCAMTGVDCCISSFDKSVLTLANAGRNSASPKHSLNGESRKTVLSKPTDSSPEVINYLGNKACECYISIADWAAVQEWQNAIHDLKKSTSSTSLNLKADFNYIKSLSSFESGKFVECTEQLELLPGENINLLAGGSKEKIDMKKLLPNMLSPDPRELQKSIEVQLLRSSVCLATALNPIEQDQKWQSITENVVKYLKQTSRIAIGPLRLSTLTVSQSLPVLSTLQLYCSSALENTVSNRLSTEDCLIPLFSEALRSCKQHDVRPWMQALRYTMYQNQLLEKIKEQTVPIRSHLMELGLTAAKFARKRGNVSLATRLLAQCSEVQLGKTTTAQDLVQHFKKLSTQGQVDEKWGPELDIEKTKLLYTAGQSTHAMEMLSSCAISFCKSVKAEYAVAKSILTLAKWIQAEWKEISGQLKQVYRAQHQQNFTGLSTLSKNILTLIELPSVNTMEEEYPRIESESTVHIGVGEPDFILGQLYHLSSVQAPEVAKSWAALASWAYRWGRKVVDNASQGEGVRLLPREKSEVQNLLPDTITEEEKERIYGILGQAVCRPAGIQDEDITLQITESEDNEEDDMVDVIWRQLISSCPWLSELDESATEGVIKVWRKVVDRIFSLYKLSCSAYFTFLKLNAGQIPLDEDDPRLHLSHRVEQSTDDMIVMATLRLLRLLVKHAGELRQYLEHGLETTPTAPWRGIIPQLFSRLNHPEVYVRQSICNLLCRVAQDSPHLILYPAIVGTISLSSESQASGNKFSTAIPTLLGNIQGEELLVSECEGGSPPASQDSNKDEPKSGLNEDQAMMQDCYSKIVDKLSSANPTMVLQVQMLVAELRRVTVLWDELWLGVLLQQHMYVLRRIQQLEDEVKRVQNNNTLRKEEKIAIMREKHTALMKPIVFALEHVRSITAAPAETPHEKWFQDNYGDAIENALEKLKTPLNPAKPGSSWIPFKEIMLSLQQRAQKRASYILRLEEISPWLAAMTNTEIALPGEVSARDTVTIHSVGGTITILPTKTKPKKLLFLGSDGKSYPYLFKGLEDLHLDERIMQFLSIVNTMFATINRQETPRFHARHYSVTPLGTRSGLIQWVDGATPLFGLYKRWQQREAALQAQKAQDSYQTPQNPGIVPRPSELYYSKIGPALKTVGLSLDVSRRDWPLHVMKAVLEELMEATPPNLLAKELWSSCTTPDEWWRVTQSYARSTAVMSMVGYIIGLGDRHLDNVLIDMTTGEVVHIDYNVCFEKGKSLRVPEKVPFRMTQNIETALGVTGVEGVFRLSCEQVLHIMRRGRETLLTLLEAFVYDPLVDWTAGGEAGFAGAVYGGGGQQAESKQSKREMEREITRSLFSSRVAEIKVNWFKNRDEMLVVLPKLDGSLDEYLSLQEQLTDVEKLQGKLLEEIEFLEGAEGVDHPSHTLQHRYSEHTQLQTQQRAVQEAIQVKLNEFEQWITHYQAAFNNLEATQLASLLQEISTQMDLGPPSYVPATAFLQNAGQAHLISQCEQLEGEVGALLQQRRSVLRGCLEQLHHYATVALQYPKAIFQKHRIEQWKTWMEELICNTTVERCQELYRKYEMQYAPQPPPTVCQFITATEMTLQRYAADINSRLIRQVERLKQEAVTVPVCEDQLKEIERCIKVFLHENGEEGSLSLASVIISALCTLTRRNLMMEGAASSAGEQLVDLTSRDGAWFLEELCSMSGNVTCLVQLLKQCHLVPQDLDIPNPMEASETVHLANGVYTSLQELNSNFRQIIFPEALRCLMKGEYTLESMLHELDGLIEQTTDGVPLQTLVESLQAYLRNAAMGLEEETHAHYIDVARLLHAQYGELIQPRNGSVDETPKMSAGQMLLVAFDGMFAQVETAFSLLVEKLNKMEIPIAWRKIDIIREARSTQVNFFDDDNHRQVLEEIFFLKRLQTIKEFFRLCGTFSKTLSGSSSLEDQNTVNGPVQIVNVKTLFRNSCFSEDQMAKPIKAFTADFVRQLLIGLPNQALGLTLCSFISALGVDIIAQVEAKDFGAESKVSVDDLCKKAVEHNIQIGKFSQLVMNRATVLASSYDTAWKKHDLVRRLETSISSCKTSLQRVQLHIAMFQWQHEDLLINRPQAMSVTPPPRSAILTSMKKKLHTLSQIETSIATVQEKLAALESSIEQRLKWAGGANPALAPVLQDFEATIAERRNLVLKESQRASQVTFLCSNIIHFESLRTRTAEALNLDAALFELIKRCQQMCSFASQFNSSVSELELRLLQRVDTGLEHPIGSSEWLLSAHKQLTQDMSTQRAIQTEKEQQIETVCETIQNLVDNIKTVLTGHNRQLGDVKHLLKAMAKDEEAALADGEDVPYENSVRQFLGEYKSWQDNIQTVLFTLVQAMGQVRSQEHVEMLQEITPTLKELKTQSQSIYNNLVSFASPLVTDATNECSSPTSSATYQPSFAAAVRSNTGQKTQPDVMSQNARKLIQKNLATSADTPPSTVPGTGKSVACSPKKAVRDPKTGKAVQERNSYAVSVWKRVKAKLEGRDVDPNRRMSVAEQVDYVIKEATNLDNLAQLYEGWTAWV

[2] = molecular target: B1; assay: SPR; competition: SMG1 immobilised; MIF4G-3 at constant 50 nM injected with 0, 50, 250, 500 nM UPF3b RRM domain; details: both partners purified

Kd [1] [nM]	binding result [2]	Binder
60 ± 5	–	B1
34 ± 2	–	B2
–	binds	B3
37 ± 5	–	B4
